Assay results: patent publication US20080248054

Molecular target: Jun kinase JNK1, Q91Y86
Sequence (Q91Y86 whole entry): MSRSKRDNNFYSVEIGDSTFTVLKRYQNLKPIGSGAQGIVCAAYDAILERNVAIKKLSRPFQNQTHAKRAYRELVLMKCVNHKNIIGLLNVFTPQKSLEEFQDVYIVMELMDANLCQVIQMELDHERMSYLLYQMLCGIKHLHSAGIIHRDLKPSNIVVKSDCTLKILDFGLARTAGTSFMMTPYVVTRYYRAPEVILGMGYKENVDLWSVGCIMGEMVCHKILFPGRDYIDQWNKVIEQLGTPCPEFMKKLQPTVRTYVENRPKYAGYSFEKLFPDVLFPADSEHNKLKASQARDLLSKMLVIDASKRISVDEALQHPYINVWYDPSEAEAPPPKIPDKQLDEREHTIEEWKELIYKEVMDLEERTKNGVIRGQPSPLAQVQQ

B1: murine MINK (Misshapen/NIKs-related kinase) (protein)
chain: MGDPAPARSLDDIDLSALRDPAGIFELVEVVGNGTYGQVYKGRHVKTGQLAAIKVMDVTEDEEEEIKQEINMLKKYSHHRNIATYYGAFIKKSPPGNDDQLWLVMEFCGAGSVTDLVKNTKGNALKEDCIAYICREILRGLAHLHAHKVIHRDIKGQNVLLTENAEVKLVDFGVSAQLDRTVGRRNTFIGTPYWMAPEVIACDENPDATYDYRSDIWSLGITAIEMAEGAPPLCDMHPMRALFLIPRNPPPRLKSKKWSKKFTDFIDTCLIKTYLSRPPTEQLLKFPFIRDQPTERQVRIQLKDHIDRSRKKRGEKEETEYEYSGSEEEDDSHGEEGEPSSIMNVPGESTLRREFLRLQQENKSNSEALKQQQQLQQQQQRDPEAHIKHLLHQRQRRIEEQKEERRRVEEQQRREREQRKLQEKEQQRRLEDMQALRREEERRQAEREQEYKRKQLEEQRQSERLQRQLQQEHAYLKSLQQQQQQQQLQKQQQQQQQILPGDRKPLYHYGRGINPADKPAWAREVEERARMNKQQNSPLAKRSQAGAGPEPPISQASPSPPGPLSQTPPMQRPVEPQEGPHKSLVAHRVPLKPYAAPVPRSQSLQDQPTRNLAAFPASHDPDPAAVPTPTATPSARGAVIRQNSDPTSEGPGPSPNPPSWVRPDNEAPPKVPQRTSSIATALNTSGAGGSRPAQAVRASNPDLRRSDPGWERSDSVLPASHGHLPQAGSLERNRNRVGASTKLDSSPVLSPGNKAKPEDHRSRPGRPADFVLLKERTLDEAPKPPKKAMDYSSSSEEVESSEEEEEEGDGEPSEGSRDTPGGRSDGDTDSVTTMVVHDVEEISGTQPSYGGGTMVVQRTPEEERSLLLADSNGYTNLPDVVQPSHSPTENSKGQSPPTKDGGSDYQSRGLVKAPGKSSFTMFVDLGIYQPGGSGDTIPITALVGGEGGRLDQLQFDVRKGSVVNVNPTNTRAHSETPEIRKYKKRFNSEILCAALWGVNLLVGTENGLMLLDRSGQGKVYGLIGRRRFQQMDVLEGLNLLITISGKRNKLRVYYLSWLRNKILHNDPEVEKKQGWTTVGDMEGCGHYRVVKYERIKFLVIALKNSVEVYAWAPKPYHKFMAFKSFADLPHRPLLVDLTVEEGQRLKVIYGSSAGFHAVDVDSGNSYDIYIPVHIQSQITPHAIIFLPNTDGMEMLLCYEDEGVYVNTYGRIIKDVVLQWGEMPTSVAYICSNQIMGWGEKAIEIRSVETGHLDGVFMHKRAQRLKFLCERNDKVFFASVRSGGSSQVYFMTLNRNCIMNW
- levels of phosphorylated JNK in DP thymocytes after CD3/CD28 ligation (Western blot, anti-phospho-JNK1): MINK-deficient DP thymocytes express markedly reduced levels of phosphorylated JNK compared with control mice after CD3/CD28 ligation
